By Tm is commonly meant the temperature at the midpoint of the melting transition.

We go through one substance from FireProtDB (doi:10.1126/science.aai7825).

The conditions of this data set: Escherichia coli (strain K12); pH 7.5; Thermal; Intensity; HEPES 20mM; transition: 2.

Chain of Adenylate kinase wild type, P69441 (P69441 whole entry): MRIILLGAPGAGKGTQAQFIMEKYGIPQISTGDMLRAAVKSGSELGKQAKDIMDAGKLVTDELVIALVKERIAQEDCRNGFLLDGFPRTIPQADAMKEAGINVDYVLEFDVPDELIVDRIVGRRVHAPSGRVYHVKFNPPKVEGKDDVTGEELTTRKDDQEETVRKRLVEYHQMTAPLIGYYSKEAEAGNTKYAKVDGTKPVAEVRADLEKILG

Adenylate kinase wild type, P69441: the Tm came to 42.5 °C.
